Assay results as given in patent publication US12064464B2, “Plantaricin NC8 alpha beta markedly enhances the effects of antibiotics” (priority 2018, dated 2024).
“Also recorded” adds a separate entry of the source. Where two headings read alike, the source gives them in different places.

Experiments:
Escherichia coli = experiment: Broth microdilution MIC/MBC; format: cell-based; conditions: for MBC / MIC: peptide alone
Description: Staphylococcus aureus CCUG 35601 (MRSA, Culture Collection, University of Gothenburg) and Staphylococcus aureus ATCC 29213 (MSSA, ATCC, Manassas, VA). Staphylococcus epidermidis ATCC 12228 (ATCC, Manassas, VA), RP62A, N15 and 10 clinical isolates of Staphylococcus epidermidis that have previously been characterized. Isolated Escherichia coli, Enterococcus faecium (including VRE), Pseudomonas aeruginosa, Klebsiella pneumoniae, Enterobacter spp and Acinetobacter baumannii were obtained from Orebro University hospital. Isolated Streptococcus mutans, Streptococcus constellatus and Streptococcus anginosus were obtained from Malmo University. The bacteria were grown on Luria-Bertani (LB) agar plates, supplemented with 5% defibrinated horse blood, and incubated at 37° C. overnight. Single colonies were inoculated into 5 ml of LB broth and incubated on a shaker (300 rpm) at 37° C. overnight. The bacterial concentration was determined by viable count and adjusted to correlate with approximately 10^9 CFU/ml.
The broth microdilution method was used to determine minimal inhibitory concentration (MIC) and minimal bactericidal concentration (MBC). Two-fold serial dilutions of the peptides were used and the final concentrations ranged from 0.097-50 μM. […] The effect of bacteriocin-antibiotic combinations was accomplished by using the same concentration series of antibiotics with a constant concentration of PLNC8 αβ (3.1 μM) in all the wells. […] All experiments were repeated at least three times.

human erythrocytes = experiment: Hemolysis; format: cell-based; conditions: 0.5-50 μM, 1 h; listed as L-PLNC8 αβ
Procedure: The hemolytic activity of the peptides was investigated by collecting blood from healthy volunteers in heparinized vacutainers. The blood was centrifuged at 600×g for 5 min and the erythrocyte pellet was washed three times in PBS. The cells were then suspended in PBS and added to 96-well plates (15% erythrocyte suspension/well), containing the peptides with two-fold serial dilution. The plates were incubated for 1 h at 37° C. followed by centrifugation for 5 min at 900×g and measurement of the supernatants at 540 nm. Haemolytic activity (%) was calculated by subtracting the negative control from all values and normalization against the positive control (0.5% Triton X-100), that was set to 100%. All experiments, each in duplicate, were repeated three times.

S. epidermidis = experiment: Aggregation and ATP release; format: cell-based, Staphylococcus epidermidis
Procedure: Aggregation and extracellular release of ATP were used to study the effects of PLNC8 αβ on the bacteria. ATP was registered using a luciferin/luciferase bioluminescence assay (Sigma, St. Louis, Mo, USA) in bacterial suspensions (2.5×10^8 CFU/ml). The bacteria were exposed to different concentrations of PLNC8 αβ, and real-time changes in light transmission and bioluminescence were recorded in a Chronolog lumi-aggregometer (Chrono-Log, Haverton, PA, USA) for 30 min. The levels of ATP were calculated based on the bioluminescence signals recorded in response to known concentrations of ATP.

[1] = references 1, 2; cited from earlier work
[2] = tested on: S. epidermidis ATCC 12228; experiment: Sytox Green uptake (membrane permeabilization); format: cell-based, Staphylococcus epidermidis; conditions: 5 μM
Procedure: The fluorescent dye Sytox® Green, which can only cross damaged membranes and fluoresce upon binding to nucleic acids, was used to study the antimicrobial activity of PLNC8 αβ on S. epidermidis, S. aureus (MSSA, MRSA) and Streptococcus spp. The bacteria were washed and resuspended in Krebs-Ringer Glucose buffer (KRG) (120 mM NaCl, 4.9 mM KCl, 1.2 mM MgSO4, 1.7 mM KH2PO4, 8.3 mM Na2HPO4, and 10 mM glucose, pH 7.3) and incubated in the presence or absence of different combinations of PLNC8 αβ in 96-well microtiter plates for 2 min. Images were captured with Olympus BX41 at 40× magnification.

[3] = ESBL-producing E. coli, first isolate
[4] = ESBL-producing E. coli, second isolate
[5] = Non-ESBL E. coli, first isolate
[6] = Non-ESBL E. coli, second isolate

B1: PLNC8 αβ: two-peptide class IIb bacteriocin of L. plantarum NC8: PLNC8 α (SEQ ID NO 1) with PLNC8 β (SEQ ID NO 2) (peptide)
alpha: DLTTKLWSSWGYYLGKKARWNLKHPYVQF
beta: SVPTSVYTLGIKILWSAYKHRKTIEKSFNKGFYH
modifications: Lactobacillus plantarum NC8
- effect of peptide alone on Escherichia coli (Escherichia coli): permeabilized and killed
- effect of sub-MIC peptide on antibiotics (Escherichia coli): significantly enhanced the effects of different antibiotics
- MBC (Escherichia coli; [3]): >50 µM
- MIC (Escherichia coli; [3]): >50 µM
- MBC (Escherichia coli; [4]): >50 µM
- MIC (Escherichia coli; [4]): >50 µM
- MBC (Escherichia coli; [5]): >50 µM
- MIC (Escherichia coli; [5]): >50 µM
- MBC (Escherichia coli; [6]): >50 µM
- MIC (Escherichia coli; [6]): >50 µM
- effect of peptide alone on Escherichia coli (Escherichia coli; listed as PLNC8αβ): did not affect the growth; also recorded: does not affect the growth
- hemolytic activity (human erythrocytes): no hemolytic activity was observed; also recorded: low hemolytic activity
- release of ATP (bacterial lysis) (S. epidermidis): dose-dependent release of ATP
- aggregation of bacteria (S. epidermidis; low concentrations): bacteria aggregates when exposed to low concentrations
- cell proliferation [1]: stimulates cell proliferation
- perturbation of the plasma membrane of S. epidermidis [2]: equally rapid (2 min)
